Experiment: soluble on expression in E. coli; label from the status in PepcDB or PDB records

| Sequence | soluble on expression in E. coli |
| --- | --- |
| MSLDISKKSLLTPAEAAKLLHVAPTTIRHWAQIGRLPFISTPGGHRRFDRNDILSLMSTPKINVKNDFSILIIEDDKEFADMLTQFLENLFPYAKIKIAYNPFDAGDLLHTVKPDVVMLDLMMVGMDGFSICHRIKSTPATANIIVIAMTGALTDDNVSRIVALGAETCFGKPLNFTLLEKTIKQLVEQKKATSEGHHHHHH | soluble |
| MDKELIKKNIKLMDATIEKMIHVMSSIHKLQLSVKELEDSNELTVSYVKRECTKLEERVKELRPSISRCVFMYREYVEEFETKLRDRIVTEKFFRIKRFYGKEVLAFKEFQEKYQNYIPKDIIDIKKQVRQKLEEVGYEIDGAFEGDFTSWVGVYARPKDKPTYLDPANAEEVVLQEKYSVNGFKQDFSEWFEFEIKDNVVYGILEHHHHHH | soluble |
| MSLKMSDIAKMAGVSKAAVSFALNGKPGVSDETRKKIFKVIKDQGYEPLRKHKKGGVRKIASISLIIIQDRTGMMNRSYASLPFFDTLVSELSQNVSGAGGQMQIVNLDINHLHEGLNNEALQQSKASIVLATDLNQKQVQLINRKLRNVIFVDNYFEYIQADFVSIDNFQGAYRAGKFIVKKGYRKIGYVASNHAISNFLQRRSGFRKAMREANIQIPPEYVFSLNPTELRGSLPALFRQKNNWPEAIFCEDDYMALRLLNALTRQGIKVPQDIAVMGFDDISEDTMVIPELTTIHVPITQIVDQAINQLQCKVADTDWLPQKCFISTKLIERESEGHHHHHH | not soluble |
| MTLPMQETRFSILLDELAAKQEAAIAPHLLADGTKVWIRKAGRHNARWRYALLGMVARYLKLGVLKPVPSLGGEPAIATESKRLYELRSAGIAVPELLAVRKNALMFGNLEGIPLDAQIRQEAEAGKSDAWLAGLEAIARVHKKRQFLSQAFARNMMSDGKNISFLDFEDDPSEVLTIAQCQARDWLCYIHSTALILKNGGLLEAAAEKWGGVLSDQPAEIQKLIAATVKPILPIRRLEHPRWGRDALRLAASISLISLADMPP | not soluble |
| MPNYKLTYFNMRGRAEIIRYIFAYLDIQYEDHRIEQADWPEIKSTLPFGKIPILEVDGLTLHQSLAIARYLTKNTDLAGNTEMEQCHVDAIVDTLDDFMSCFPWAEKKQDVKEQMFNELLTYNAPHLMQDLDTYLGGREWLIGNSVTWADFYWEICSTTLLVFKPDLLDNHPRLVTLRKKVQAIPAVANWIKRRPQTKL | soluble |
| MIISAASDYRAAAQRTLPPFLFHYIDGGAYAEYTLRRNVEDLSQVALRQRVLKNMSDLSLETTLFNETLSMPVALAPVGLCGMYARRGEVQAAAAADAKGIPFTLSTVSVCPIEEVAPTIKRPMWFQLYVLRDRGFMRNALERAKAAGCSTLVFTVDMPTPGARYRDAHSGMSGPNAAMRRYWQAVMHPKWAWDVGLNGRPHDLGNISAYLGKPTGLEDYIGWLANNFDPSISWKDLEWIREFWDGPMVIKGILDPEDARDAVRFGADGIVVSNHGGRQLDGVLSSARALPAIADAVKGDIAILADSGIRNGLDVVRMIALGADTVLLGRAYLYALATAGKAGVANLLDLIEKEMKVAMTLTGAKSISEISGDSLVQELGKSLPAALAPMSKGDAA | not soluble |
| MGSDKIHHHHHHMTPTVLLANPRGFCAGVDRAIAIVERALEKFGAPIYVRHEVVHNTFVVDDLKRKGAVFVEELSEVPAGATVIFSAHGVSQAVRTEAAARGLTVFDATCPLVTKVHVEVSKMRDKGYEIVMIGHKGHPEVEGTLGQSAGGMYLVETPGDVATLEVTNPDCLAYVTQTTLSVDDAARVVDALRARFPTITGPKKDDICYATQNRQDAVKHLASQCDVVIVVGSPTSSNSNRLREVAENLGIAAYMVDNADEIDPRWVSGNQRVGVTAGASAPDVLVRAVIDRLERLGICSVSELDGVQEKVGFPLPRELA | not soluble |
| MKEKVSMVSLGCPKNLVDAEVMLGCLAKDQYEITTDEHEADIIIVNTCSFIGDAKKESIDTILDLADRKHDGRCKLLVVTGCLPQRYQEELATELPEVDIFVGTADYPRIAEIIAEKRGVAEQLRYISDPNYIFDESLPRLKSSPAYTAYLKIAEGCSNCCSYCVIPSLRGALRSRPLDNLLMEARTLVATGTREINLIAQDITAWGRDLPGSPTLEELVRELAKIVGLRWIRLLYAYPDGITDGLIEIIKTEPKVCKYLDIPIQHISDPVLKRMNRRSTEPQIRALIAKIRAEIPEIALRTSLIVGFPGETEEDFRTLLHYVEETQFDRLGVFCYSREEGTPAAGMEDQVSERVKRDRYKKLMKVQARLSFKRNRRLIDTEEEVIVEGYSDETDLLLKGRSSRQAPDIDGQVYITAGNANVGDIVRLRITDSSDYDLIGEIVEELEHHHHHH | soluble |
| DILLTQSPAILSVSPGERVSFSCRASQSIGTDIHWYQQRTNGSPRLLIKYASESISGIPSRFSGSGSGTDFTLSINSVESEDIANYYCQQSNRWPFTFGSGTKLEIKRADAAPTVSIFPPSSEQLTSGGASVVCFLNNFYPKDINVKWKIDGSERQNGVLNSWTDQDSKDSTYSMSSTLTLTKDEYERHNSYTCEATHKTSTSPIVKSFNRN | soluble |
| GPGSMGIIKHVAVILDVSEASLEQHVLERVRQLDEDTVVRRLSEEKAGKLPDFIKLSEDIIEKNDLRKSGEGSVESIQRFVCFVTDNKTRQNGMVAYAMHCLQIPVLSLTKGQKAKGNDDAEHWVSTILYKDLDGSHTDPLAAVNEFFTFPDKVGELLAVEGRDSQLTLQYCRELRSYLQRAWSAEVKLVGPNGCDMSEEGLDGTKCGETDNVEEQVEVESGIHAPLVKELLGNSQLESTHQNDHLLHGAMYALNRHENLPIIRYRLQRGVNIILCRPMSSSLEKLFNKFSRMRGGAEDVRRSFIDAVKSLLQFEGRWLDMPRRRVVLIREGVAHSWSAWLGNEVIHPLVDWIPVDVKAGNIADHCASLEASVKKAVRRLSR | soluble |
| MGSDKIHHHHHHMPHSLHPLFQAIATAPTEQTLRLTVMDNISEYFGVQRWGIYLLDTNNNLASVEAKGVSDTFIEQYQRFGKAVDPVLKYVLENHAPAHEELVLPEGTWKQSELYQRCCSTHDHEHIMTGPLVGQGQLIGTINFARIGHIPAFNHLELASLGAVCTHFSARLAELRKPHSVSGQISNRLTSREIQIANLVAKGLTNAEIGAELWITHNSVKQALKRIFRKLEVSARTEMVAKLRDII | not soluble |
| MIKIEINGIDEIIAKLNLIANKTENKTDLMRNIAGTMESAVQTNFEVGGRPKWLGIKHRKGVPLVDSENLMDSITSAYDNDTAFVGTNEEYAAIHQFGGMAGRGCKVKIEARPFLTLTEQDKSDILEEITDYWQRLLQ | not soluble |
| MSLSNKIVLTSPDRKTTRLLEKVRKEYDFKIDAYEATFDDAVELIRGKVAHREHWDPIIATGGATLGLLRDNLGRMPWVNIFPTEYDLVIALEQAKKTKKTIGLFNPGQIDTEAIKAVCSAIQIDAHIYRYNSWKEVLVQVEKAYQDGVEVAIGAGEKISSAVERKNIQYVSVTSGEYTIRRAFKYAQLLVDLKRNEKVSHEEGHHHHHH | not soluble |
| MKTKEDMQELYFPTPKLIEWENGVRQYSTVRGDTEVLMSYVPPHTNVEPHQHKEVQIGMVVSGELMMTVGDVTRKMTALESAYIAPPHVPHGARNDTDQEVIAIDIKRLKADETYTSPEDYFLDIFKTRDLLPGMEVTFFVEDWVEIMLAKIPGNGGEMPFHKHRNEQIGICIGGGYDMTVEGCTVEMKFGTAYFCEPREDHGAINRSEKESKSINIFFPPRYNRAKAKKMKADELEHHHHHH | soluble |
| MASDYEAVNTNPYGVSDGELGPLKYGARFMNMQQRVIPIGSPSLTTGPGNDLQNTDLISSGNYIGYFGNNNNWGFNNEANWNFTDSRMNYAYQNFYSQIFLPWNEIYEIAKDSDSPSEQAILEIANIVRNIAWLRATDVFGPIAYNSAGDGSIAPKFDSQEVVYRSMLADLSKSVELLNTISYSVMAQYDLIYNGNVQNWVKLANSLMLRIVVRVHFIDETLAKEYITKALDPKNGGVIEDISSEAKIKSSDKMPLLNSMLASVNEYNETRMGATIWGYLDGYKDPRLSAYFTEGTYGSGSWAQTGYFPVAPTNSKSKSETSYSAKFASRPKVDSNSPLYWFRASETYFLKAEAALYNLIGGDPKTFYEQGINISFQEQGVSGVATYLSGTGKPTGLTGSNYKYGTYNHDLSIGNTSPKWDDYTGNLSKQEEQLQKIITQKYLALYPNAVEAWTEYRRTGFPYLMKPMDEAAPGRIGASIEDCRVPERFRFAPTAYNSNPNMAEIPTLLGGGDIGATKLWWVRSNRPKQPNQ | soluble |

Source: the DeepSol protein solubility set
